Source: patent US20240390512A1 (Daiichi Sankyo, published 2024)
Blank lines part the entries; values can stand above or below the binder they belong to.

Experiments:
[1] = molecular target: T1, cynomolgus monkey CDH6, on cells (cynomolgus monkey, UniProt P55285 54-790 (human entry)); assay: Cell-ELISA and flow cytometry screening with hybridoma supernatants on transfected cells
T1 construct: Expressed from pcDNA3.1-cynoCDH6; also called cynoCDH6
T1 sequence: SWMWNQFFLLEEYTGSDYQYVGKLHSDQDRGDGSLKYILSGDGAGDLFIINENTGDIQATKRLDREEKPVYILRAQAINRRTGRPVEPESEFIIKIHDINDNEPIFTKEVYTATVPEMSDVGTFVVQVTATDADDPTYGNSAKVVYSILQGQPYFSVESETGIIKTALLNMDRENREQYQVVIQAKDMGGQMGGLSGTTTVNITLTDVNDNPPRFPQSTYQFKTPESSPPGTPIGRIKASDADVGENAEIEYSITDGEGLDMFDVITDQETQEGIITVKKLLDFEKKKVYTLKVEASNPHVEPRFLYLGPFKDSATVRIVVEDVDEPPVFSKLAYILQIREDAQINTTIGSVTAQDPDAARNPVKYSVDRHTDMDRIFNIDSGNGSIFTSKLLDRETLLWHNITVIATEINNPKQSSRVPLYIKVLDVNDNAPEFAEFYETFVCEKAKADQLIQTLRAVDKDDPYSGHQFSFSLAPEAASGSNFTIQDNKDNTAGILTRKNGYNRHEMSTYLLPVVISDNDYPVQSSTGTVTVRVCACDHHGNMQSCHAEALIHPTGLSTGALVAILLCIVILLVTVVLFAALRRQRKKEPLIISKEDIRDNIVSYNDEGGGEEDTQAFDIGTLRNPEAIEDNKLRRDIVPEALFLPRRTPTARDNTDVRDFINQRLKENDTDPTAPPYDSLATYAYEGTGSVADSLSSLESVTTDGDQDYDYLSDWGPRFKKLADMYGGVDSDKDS

[2] = molecular target: T2, human CDH6 (cadherin-6), full-length, on cells (human, UniProt P55285 54-790); assay: flow cytometry; hCDH6-transfected 293T cells (open line) against untransfected 293T cells (shaded); antibody 10 ng/mL; anti-rat IgG-FITC
T2 construct: also called hCDH6; full-length hCDH6
T2 sequence: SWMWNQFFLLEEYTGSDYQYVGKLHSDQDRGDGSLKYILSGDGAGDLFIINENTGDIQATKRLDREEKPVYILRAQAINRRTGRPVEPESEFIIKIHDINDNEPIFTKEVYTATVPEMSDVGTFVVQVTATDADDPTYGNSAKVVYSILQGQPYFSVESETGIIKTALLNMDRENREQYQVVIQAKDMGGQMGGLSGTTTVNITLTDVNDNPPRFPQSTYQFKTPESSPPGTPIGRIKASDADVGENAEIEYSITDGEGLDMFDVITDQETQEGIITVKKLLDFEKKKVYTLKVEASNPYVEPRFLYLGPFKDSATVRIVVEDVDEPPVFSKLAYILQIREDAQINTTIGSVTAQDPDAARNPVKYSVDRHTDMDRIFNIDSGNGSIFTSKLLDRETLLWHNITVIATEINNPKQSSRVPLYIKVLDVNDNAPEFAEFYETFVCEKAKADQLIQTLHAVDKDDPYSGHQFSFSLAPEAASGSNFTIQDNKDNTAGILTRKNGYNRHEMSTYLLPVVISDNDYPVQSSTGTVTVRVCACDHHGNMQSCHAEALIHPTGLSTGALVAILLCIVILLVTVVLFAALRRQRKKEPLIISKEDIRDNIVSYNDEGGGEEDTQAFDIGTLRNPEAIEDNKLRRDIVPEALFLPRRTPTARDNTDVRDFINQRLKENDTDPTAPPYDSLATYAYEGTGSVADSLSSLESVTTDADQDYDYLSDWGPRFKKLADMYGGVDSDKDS

[3] = molecular target: T3, EC3 deletion mutant of human CDH6, on cells (human, UniProt P55285 54-790); assay: flow cytometry; 293α cells transfected with EC3-deleted hCDH6 (open line) against untransfected 293α cells (shaded); anti-rat IgG-FITC
T3 construct: in p3×FLAG-CMV-9; also called EC3-deleted hCDH6
T3 sequence: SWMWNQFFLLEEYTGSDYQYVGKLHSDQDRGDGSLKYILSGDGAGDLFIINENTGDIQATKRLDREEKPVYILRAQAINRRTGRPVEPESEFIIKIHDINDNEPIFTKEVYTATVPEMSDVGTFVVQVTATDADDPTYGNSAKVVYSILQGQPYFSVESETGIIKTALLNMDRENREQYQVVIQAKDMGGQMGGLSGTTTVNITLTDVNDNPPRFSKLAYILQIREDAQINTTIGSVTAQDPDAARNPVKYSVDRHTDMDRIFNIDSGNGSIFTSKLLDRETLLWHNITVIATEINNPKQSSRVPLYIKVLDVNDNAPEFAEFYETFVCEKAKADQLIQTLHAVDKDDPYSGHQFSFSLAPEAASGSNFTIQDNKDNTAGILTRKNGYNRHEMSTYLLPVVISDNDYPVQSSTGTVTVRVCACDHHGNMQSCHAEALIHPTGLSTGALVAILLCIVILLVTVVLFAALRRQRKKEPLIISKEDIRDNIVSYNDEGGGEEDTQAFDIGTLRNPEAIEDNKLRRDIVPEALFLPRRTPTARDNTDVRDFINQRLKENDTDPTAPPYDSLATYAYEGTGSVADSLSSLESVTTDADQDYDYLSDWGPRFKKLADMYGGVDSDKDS

B1: rat anti-human CDH6 monoclonal antibody rG019 (antibody, rat IgG2b, V domains shown)
VH: QVQLQQSGAELVKPGSSVKISCKASGYTFTRNFMHWIKQQPGNGLEWIGWIYCGDGETEYNQKFNGKATLTADRSSSTAYMELSRLTSEDSAVYFCARGVYGGFAGGYFDFWGQGVMVTVSS
VL: DIQMTQSPSLLSASVGDRVTLNCKASQNIYKNLAWYQQKLGEGPKLLIYDANTLQTGIPSRFSGSGSGSDFTLTISSLQPEDVATYFCQQYYSGWAFGGVTNLELKRA
notes: Purified from hybridoma supernatant; also called rG019 antibody
binding result [1]: binds
binding result [2]: binds
binding result [3]: no binding (tested: 20 nM)

B2: rat anti-human CDH6 monoclonal antibody rG055 (antibody, rat IgG2b, V domains shown)
VH: EVQLQESGPGLVRPSQSLSLSCSVTDYSITSNYWGWIRRFPGNKMEWMGYITYSGYTSYNPSLQSRISITRDTSKNQFFLQLNSVTAEDTATYYCARSINHGGYSYVVDAWGPGASVTVSS
VL: DVQMTHSPSYLAASPGESVSISCKTSKNISNYLVWYQQKPGEAYKLLIYSGSTLQSGTPSRFSGSGSGTDFTLTIRSLEPEDFGLYFCQQYYEKPFTFGSGTKLEIKR
notes: Purified from hybridoma supernatant; also called rG055 antibody
binding result [1]: binds
binding result [2]: binds
binding result [3]: no binding (tested: 20 nM)

Other lines, results leading:

binding result [1]: binds
binding result [2]: binds
binding result [3]: no binding (tested: 20 nM)
B3: rat anti-human CDH6 monoclonal antibody rG056 (antibody, rat IgG2b, V domains shown)
VH: EVQLQESGPGLVKPSQSLSLTCSVTDYSITTYFWGWIRKFPGNKMEWMGYMSYRGGTSYNPSLKSRISITRDTSKNQFFLQLNSVTTEDTATYYCARCPNYGGHSLVFDYWGQGVMVTVSS
VL: DVQMTQSPSSLAASPGESVSISCRATKSIGIYLAWYQQKPGKTFKLLIYSGSTLQSGTPSRFSGSGSGTDFTLTIRSLEPEDFGLYFCQQFYENPFTFGSGTKLEIRR
notes: Purified from hybridoma supernatant; also called rG056 antibody

binding result [1]: binds
binding result [2]: binds
binding result [3]: no binding (tested: 20 nM)
B4: rat anti-human CDH6 monoclonal antibody rG061 (antibody, rat IgG2b, V domains shown)
VH: EVQLQESGPGLVKPSQSLSLTCSVTGYSITTYYWGWIRKFPGNKMEWMGYISYSGRTSYNPSLKSRMSITRDASKNQFFLQLNSVTTDDTATYYCARSPINHGGYWYFDFWGPGTMVTVSS
VL: DVQMTQSPSYLAASPGESVSISCKATKSISNYLAWYQQKPGEAYKVLIYSGSTLQSGTPSRFSGSGSGTDFTLTIRSLEPEDFGLYSCQQYYEKPLTFGSGTKLEIKR
notes: Purified from hybridoma supernatant; also called rG061 antibody
